The text below walks through data of the Immune Epitope Database (IEDB).

In one experiment the target is HLA-A*02:19. Description: IEDB peptide-MHC binding, purified MHC/competitive/fluorescence; filed as Kd, often an IC50 or EC50 that approximates it; ≥ and ≤ were set here for values at or beyond the usual limits of such assays. Conditions: source organism: Human immunodeficiency virus type 1 (ELI ISOLATE).
Experiment [1] has as its target HLA-A*02:01. The description is as above.
Experiment [2] has as its target HLA-B*15:09. The description is as above.
In a further experiment the target is HLA-A*02:11. The experiment is described as above. To be noted: source organism: Human immunodeficiency virus type 1 (ELI ISOLATE).
The target in the next experiment is HLA-A*02:16. The description is as above. To be noted: source organism: Human immunodeficiency virus type 1 (ELI ISOLATE).
Experiment [3] has as its target HLA-A*69:01. The experiment is described as above.
The next experiment concerns the target HLA-A*02:03. The description is as above.
A further experiment concerns the target HLA-A*02:06. The experiment is described as above.
A further experiment deals with HLA-B*83:01. Described as above.
The next experiment concerns the target HLA-B*45:06. The experiment is described as above.
For another experiment, the target named is HLA-B*15:42. The description is as above.
The target in the next experiment is HLA-C*04:01. Described as above.
The target in experiment [4] is HLA-A*11:01. Described as above. To be noted: source organism: Influenza A virus (A/duck/Hong Kong/3096/99(H6N2)).
Experiment [5] addresses HLA-B*15:01. Described as above. Conditions: source organism: Influenza A virus (A/duck/Hong Kong/3096/99(H6N2)).
The next experiment deals with HLA-B*15:17. In words: IEDB peptide-MHC binding, purified MHC/direct/fluorescence; filed as Kd, often an IC50 or EC50 that approximates it; ≥ and ≤ were set here for values at or beyond the usual limits of such assays.
Another experiment concerns the target HLA-B*38:01. The description is as above. Conditions: source organism: Influenza A virus(A/swine/Shandong/fZC/2003(H9N2)).
The target of the next experiment is HLA-A*31:01. The description is as above.
The target of experiment [6] is HLA-B*39:01. The experiment is described as above. To be noted: source organism: Influenza A virus(A/swine/Shandong/fZC/2003(H9N2)).
Another experiment deals with HLA-B*46:01. The experiment is described as above.
For the next experiment, the target named is HLA-B*08:02. Described as above. Conditions: source organism: Influenza A virus(A/swine/Shandong/fZC/2003(H9N2)).
The next experiment deals with HLA-B*48:01. The experiment is described as above.
In experiment [7] the target is HLA-A*02:01. Described as above.
Experiment [8] has as its target HLA-B*15:09. The experiment is described as above. To be noted: source organism: Influenza A virus(A/swine/Shandong/fZC/2003(H9N2)).
A further experiment concerns the target HLA-B*57:01. The description is as above.
The next experiment deals with HLA-A*01:01. The experiment is described as above.
Another experiment deals with HLA-A*03:01. The experiment is described as above.
The next experiment concerns the target HLA-B*40:01. Described as above.
Experiment [9] concerns the target HLA-A*69:01. Described as above.
A further experiment concerns the target HLA-B*27:05. Described as above.
In the next experiment the target is HLA-B*58:01. The experiment is described as above.
For another experiment, the target named is HLA-A*26:01. Described as above.
The target of a further experiment is HLA-B*08:01. Described as above.
The target in a further experiment is HLA-B*18:01. The description is as above.
Experiment [10] addresses HLA-A*11:01. The experiment is described as above.
Experiment [11] deals with HLA-B*15:01. The experiment is described as above.
The target of a further experiment is HLA-B*44:03. Description: IEDB peptide-MHC binding, purified MHC/competitive/radioactivity; filed as Kd, often an IC50 or EC50 that approximates it; ≥ and ≤ were set here for values at or beyond the usual limits of such assays. Conditions: source organism: Dengue virus 2 Jamaica/1409/1983.
In another experiment the target is HLA-B*44:02. In words: IEDB peptide-MHC binding, purified MHC/direct/fluorescence; filed as Kd, often an IC50 or EC50 that approximates it; ≥ and ≤ were set here for values at or beyond the usual limits of such assays. Conditions: source organism: dengue virus type 1.
The target in experiment [12] is HLA-B*39:01. Description: IEDB peptide-MHC binding, purified MHC/competitive/fluorescence; filed as Kd, often an IC50 or EC50 that approximates it; ≥ and ≤ were set here for values at or beyond the usual limits of such assays. Conditions: source organism: Vaccinia virus WR.
The target of the next experiment is HLA-B*07:02. In words: IEDB peptide-MHC binding, purified MHC/direct/fluorescence; filed as Kd, often an IC50 or EC50 that approximates it; ≥ and ≤ were set here for values at or beyond the usual limits of such assays. To be noted: source organism: Camelpox virus M-96.
The target of another experiment is HLA-B*51:01. The description is as above. To be noted: source organism: Camelpox virus M-96.
The mark [13] stands for this setting: source organism: Human immunodeficiency virus type 1 (ELI ISOLATE).
Where [14] appears, read: source organism: Mycobacterium tuberculosis C.
[15] abbreviates: source organism: Influenza A virus (A/swine/Miyagi/5/2003(H1N2)).
Where [16] appears, read: source organism: Influenza A virus(A/swine/Shandong/fZC/2003(H9N2)).
Where [17] appears, read: source organism: Mycobacterium tuberculosis str. Haarlem.
The mark [18] stands for this setting: source organism: Mycobacterium tuberculosis.
Where [19] appears, read: source organism: dengue virus type 2.
Where [20] appears, read: source organism: Vaccinia virus WR.
Where [21] appears, read: source organism: Camelpox virus M-96.

Usually Kd stands for a measure of binding affinity in units of concentration. As to FLGRIWPS, the dissociation constant (Kd) in the experiment with HLA-A*02:19 is 0.0018 µM; with HLA-A*02:01 [1] (setting [13]), 0.00133 µM; with HLA-B*15:09 [2] (setting [13]) it was no less than 20 µM; with HLA-A*02:11, no more than 0.0001 µM; with HLA-A*02:16 it was no more than 0.0001 µM; in the experiment with HLA-A*69:01 [3] (setting [13]), no less than 5 µM. The Kd in the experiment with HLA-A*02:03 (setting [13]) is 0.00024 µM; with HLA-A*02:06 (setting [13]), no more than 0.0001 µM.

FVYSVSFHK: the dissociation constant (Kd) with HLA-B*83:01 (setting [14]), with HLA-B*45:06 (setting [14]), with HLA-B*15:42 (setting [14]) and with HLA-C*04:01 (setting [14]) was no less than 5 µM each time.

GTEKLTITY: the equilibrium dissociation constant (Kd) is no less than 20 µM in the experiment with HLA-A*11:01 [4]; no less than 20 µM with HLA-B*15:01 [5]; 0.0065 µM in the experiment with HLA-B*15:17 (setting [15]); no less than 20 µM with HLA-B*38:01; no less than 20 µM with HLA-A*31:01 (setting [15]); no less than 20 µM with HLA-B*39:01 [6]. Moreover, the Kd with HLA-B*46:01 (setting [15]), with HLA-B*08:02, in the experiment with HLA-B*48:01 (setting [15]), with HLA-A*02:01 [7] (setting [15]), with HLA-B*15:09 [8] and in the experiment with HLA-B*57:01 (setting [15]) was no less than 20 µM each time. The equilibrium dissociation constant (Kd) is 0.0083 µM with HLA-A*01:01 (setting [15]); no less than 20 µM with HLA-A*03:01 (setting [15]); no less than 20 µM in the experiment with HLA-B*40:01 (setting [15]); no less than 20 µM in the experiment with HLA-A*69:01 [9] (setting [15]); no less than 20 µM with HLA-B*27:05 (setting [15]); no less than 20 µM with HLA-B*58:01 (setting [15]). Moreover, the Kd with HLA-A*26:01 (setting [16]) and with HLA-B*08:01 (setting [16]) was no less than 20 µM each time.

In the case of IPAPGLGAL, the Kd was 4.06 µM with HLA-B*15:09 [2] (setting [17]); no less than 20 µM with HLA-B*15:17 (setting [18]); no less than 20 µM in the experiment with HLA-A*31:01 (setting [18]); no less than 20 µM with HLA-B*46:01 (setting [18]); no less than 20 µM with HLA-B*48:01 (setting [18]); no less than 20 µM with HLA-A*02:01 [7] (setting [18]). Also, the dissociation constant (Kd) in the experiment with HLA-B*57:01 (setting [18]) was no less than 20 µM; with HLA-A*01:01 (setting [18]) it was no less than 20 µM; with HLA-A*03:01 (setting [18]), no less than 20 µM; with HLA-B*18:01 (setting [18]), no less than 20 µM; in the experiment with HLA-B*40:01 (setting [18]), no less than 20 µM; with HLA-A*69:01 [9] (setting [18]), 0.24 µM. Further, the dissociation constant (Kd) with HLA-B*27:05 (setting [18]) was no less than 20 µM; with HLA-B*58:01 (setting [18]), no less than 20 µM; in the experiment with HLA-A*26:01 (setting [17]) it was 11.1 µM; in the experiment with HLA-A*11:01 [10] (setting [18]), no less than 20 µM; with HLA-B*08:01 (setting [17]), no less than 20 µM; with HLA-B*15:01 [11] (setting [18]), no less than 20 µM.

On to SEMGANFKA, for which the Kd is 0.136 µM with HLA-B*44:03; no less than 5 µM in the experiment with HLA-B*83:01 (setting [19]); no less than 5 µM with HLA-B*45:06 (setting [19]); no less than 5 µM with HLA-B*15:42 (setting [19]); no less than 5 µM with HLA-C*04:01 (setting [19]); 0.119 µM in the experiment with HLA-B*18:01 (source organism: dengue virus type 1). The Kd in the experiment with HLA-B*44:02 worked out at 15.9 µM.

YPAVINSNI: the Kd with HLA-B*39:01 [12] is 2.81 µM; with HLA-A*02:01 [1] (setting [20]), no less than 20 µM; with HLA-B*15:09 [2] (setting [20]), no less than 20 µM; with HLA-A*69:01 [3] (setting [20]), 0.596 µM; with HLA-A*02:03 (setting [20]), 3.82 µM; in the experiment with HLA-A*02:06 (setting [20]) it was 4.11 µM. Moreover, the Kd with HLA-B*15:17 (setting [21]), in the experiment with HLA-A*31:01 (setting [21]), with HLA-B*46:01 (setting [21]), with HLA-B*48:01 (setting [21]), with HLA-B*57:01 (setting [21]) and with HLA-A*01:01 (setting [21]) was no less than 20 µM each time. For the same sequence, the Kd with HLA-A*03:01 (setting [21]) is no less than 20 µM; in the experiment with HLA-B*18:01 (setting [21]), no less than 20 µM; in the experiment with HLA-B*40:01 (setting [21]), no less than 20 µM; with HLA-B*07:02, 0.373 µM; with HLA-B*27:05 (setting [21]) it was no less than 20 µM; with HLA-B*58:01 (setting [21]) it was no less than 20 µM. Moreover, the Kd was 0.296 µM with HLA-B*51:01, no less than 20 µM in the experiment with HLA-A*11:01 [10] (setting [21]) and no less than 20 µM in the experiment with HLA-B*15:01 [11] (setting [21]).
